{"source": "patent US20260242735A1", "key": {"human CD33 E337A (human)": {"target": "human CD33 E337A (human) (UniProt P20138)", "test": "flow cytometry, HEK293-T, alanine scan"}, "human CD33 L275A (human)": {"target": "human CD33 L275A (human) (UniProt P20138)", "sequence (P20138 18-364 L275A limits assumed)": "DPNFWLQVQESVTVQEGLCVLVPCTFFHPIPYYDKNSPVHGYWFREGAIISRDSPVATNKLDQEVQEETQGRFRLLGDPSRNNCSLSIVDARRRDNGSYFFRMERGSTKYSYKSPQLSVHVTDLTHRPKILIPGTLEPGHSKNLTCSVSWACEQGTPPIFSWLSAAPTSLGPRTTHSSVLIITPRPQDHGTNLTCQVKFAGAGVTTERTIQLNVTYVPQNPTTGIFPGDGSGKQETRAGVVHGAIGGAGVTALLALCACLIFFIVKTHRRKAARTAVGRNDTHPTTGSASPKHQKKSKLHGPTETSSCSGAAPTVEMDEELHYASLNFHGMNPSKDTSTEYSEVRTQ", "test": "flow cytometry, HEK293-T, alanine scan"}, "human CD33 R286A (human)": {"target": "human CD33 R286A (human) (UniProt P20138)", "test": "flow cytometry, HEK293-T, alanine scan"}, "human CD33 Q311A (human)": {"target": "human CD33 Q311A (human) (UniProt P20138)", "test": "flow cytometry, HEK293-T, alanine scan"}, "human CD33 F345A (human)": {"target": "human CD33 F345A (human) (UniProt P20138)", "sequence (P20138 18-364 F345A limits assumed)": "as the sequence (P20138 18-364 L275A limits assumed) above, with A258L, F328A counted along it", "test": "flow cytometry, HEK293-T, alanine scan"}, "human CD33 E333A (human)": {"target": "human CD33 E333A (human) (UniProt P20138)", "sequence (P20138 18-364 E333A limits assumed)": "as the sequence (P20138 18-364 L275A limits assumed) above, with A258L, E316A counted along it", "test": "flow cytometry, HEK293-T, alanine scan"}, "human CD33 T320A (human)": {"target": "human CD33 T320A (human) (UniProt P20138)", "sequence (P20138 18-364 T320A limits assumed)": "as the sequence (P20138 18-364 L275A limits assumed) above, with A258L, T303A counted along it", "test": "flow cytometry, HEK293-T, alanine scan"}, "human CD33 N297A (human)": {"target": "human CD33 N297A (human) (UniProt P20138)", "test": "flow cytometry, HEK293-T, alanine scan"}, "human CD33 S314A (human)": {"target": "human CD33 S314A (human) (UniProt P20138)", "test": "flow cytometry, HEK293-T, alanine scan"}, "human CD33 R296A (human)": {"target": "human CD33 R296A (human) (UniProt P20138)", "test": "flow cytometry, HEK293-T, alanine scan"}, "human CD33 T331A (human)": {"target": "human CD33 T331A (human) (UniProt P20138)", "sequence (P20138 18-364 T331A limits assumed)": "as the sequence (P20138 18-364 L275A limits assumed) above, with A258L, T314A counted along it", "test": "flow cytometry, HEK293-T, alanine scan"}, "human CD33 A289S (human)": {"target": "human CD33 A289S (human) (UniProt P20138)", "test": "flow cytometry, HEK293-T, alanine scan"}, "human CD33 P301A (human)": {"target": "human CD33 P301A (human) (UniProt P20138)", "test": "flow cytometry, HEK293-T, alanine scan"}, "human CD33 D335A (human)": {"target": "human CD33 D335A (human) (UniProt P20138)", "test": "flow cytometry, HEK293-T, alanine scan"}, "human CD33 N344A (human)": {"target": "human CD33 N344A (human) (UniProt P20138)", "test": "flow cytometry, HEK293-T, alanine scan"}, "human CD33 P308A (human)": {"target": "human CD33 P308A (human) (UniProt P20138)", "test": "flow cytometry, HEK293-T, alanine scan"}, "human CD33 G327A (human)": {"target": "human CD33 G327A (human) (UniProt P20138)", "test": "flow cytometry, HEK293-T, alanine scan"}, "human CD33 S323A (human)": {"target": "human CD33 S323A (human) (UniProt P20138)", "test": "flow cytometry, HEK293-T, alanine scan"}, "human CD33 C325A (human)": {"target": "human CD33 C325A (human) (UniProt P20138)", "sequence (P20138 18-364 C325A limits assumed)": "as the sequence (P20138 18-364 L275A limits assumed) above, with A258L, C308A counted along it", "test": "flow cytometry, HEK293-T, alanine scan"}, "human CD33 V332A (human)": {"target": "human CD33 V332A (human) (UniProt P20138)", "test": "flow cytometry, HEK293-T, alanine scan"}, "human CD33 K313A (human)": {"target": "human CD33 K313A (human) (UniProt P20138)", "test": "flow cytometry, HEK293-T, alanine scan"}, "human CD33 T322A (human)": {"target": "human CD33 T322A (human) (UniProt P20138)", "test": "flow cytometry, HEK293-T, alanine scan"}, "human CD33 L271A (human)": {"target": "human CD33 L271A (human) (UniProt P20138)", "test": "flow cytometry, HEK293-T, alanine scan"}, "human CD33 D298A (human)": {"target": "human CD33 D298A (human) (UniProt P20138)", "sequence (P20138 18-364 D298A limits assumed)": "as the sequence (P20138 18-364 L275A limits assumed) above, with A258L, D281A counted along it", "test": "flow cytometry, HEK293-T, alanine scan"}, "human CD33 G304A (human)": {"target": "human CD33 G304A (human) (UniProt P20138)", "test": "flow cytometry, HEK293-T, alanine scan"}, "human CD33 G318A (human)": {"target": "human CD33 G318A (human) (UniProt P20138)", "test": "flow cytometry, HEK293-T, alanine scan"}, "human CD33 L273A (human)": {"target": "human CD33 L273A (human) (UniProt P20138)", "sequence (P20138 18-364 L273A limits assumed)": "as the sequence (P20138 18-364 L275A limits assumed) above, with L256A, A258L counted along it", "test": "flow cytometry, HEK293-T, alanine scan"}, "human CD33 Y340A (human)": {"target": "human CD33 Y340A (human) (UniProt P20138)", "test": "flow cytometry, HEK293-T, alanine scan"}, "human CD33 D112A (human)": {"target": "human CD33 D112A (human) (UniProt P20138)", "sequence (P20138 18-364 D112A limits assumed)": "as the sequence (P20138 18-364 L275A limits assumed) above, with D95A, A258L counted along it", "test": "alanine scan, flow cytometry, HEK293-T"}, "human CD33 I176A (human)": {"target": "human CD33 I176A (human) (UniProt P20138)", "test": "alanine scan, flow cytometry, HEK293-T"}, "human CD33 V138A (human)": {"target": "human CD33 V138A (human) (UniProt P20138)", "test": "alanine scan, flow cytometry, HEK293-T"}, "human CD33 W167A (human)": {"target": "human CD33 W167A (human) (UniProt P20138)", "test": "alanine scan, flow cytometry, HEK293-T"}, "human CD33 T139A (human)": {"target": "human CD33 T139A (human) (UniProt P20138)", "test": "alanine scan, flow cytometry, HEK293-T"}, "human CD33 G58A (human)": {"target": "human CD33 G58A (human) (UniProt P20138)", "sequence (P20138 18-364 G58A limits assumed)": "as the sequence (P20138 18-364 L275A limits assumed) above, with G41A, A258L counted along it", "test": "alanine scan, flow cytometry, HEK293-T"}, "human CD33 P72A (human)": {"target": "human CD33 P72A (human) (UniProt P20138)", "test": "alanine scan, flow cytometry, HEK293-T"}, "human CD33 G188A (human)": {"target": "human CD33 G188A (human) (UniProt P20138)", "test": "alanine scan, flow cytometry, HEK293-T"}, "human CD33 L161A (human)": {"target": "human CD33 L161A (human) (UniProt P20138)", "test": "alanine scan, flow cytometry, HEK293-T"}, "human CD33 T152A (human)": {"target": "human CD33 T152A (human) (UniProt P20138)", "sequence (P20138 18-364 T152A limits assumed)": "as the sequence (P20138 18-364 L275A limits assumed) above, with T135A, A258L counted along it", "test": "alanine scan, flow cytometry, HEK293-T"}, "human CD33 G156A (human)": {"target": "human CD33 G156A (human) (UniProt P20138)", "test": "alanine scan, flow cytometry, HEK293-T"}, "human CD33 W179A (human)": {"target": "human CD33 W179A (human) (UniProt P20138)", "test": "alanine scan, flow cytometry, HEK293-T"}, "human CD33 D107A (human)": {"target": "human CD33 D107A (human) (UniProt P20138)", "sequence (P20138 18-364 D107A limits assumed)": "as the sequence (P20138 18-364 L275A limits assumed) above, with D90A, A258L counted along it", "test": "alanine scan, flow cytometry, HEK293-T"}, "human CD33 H143A (human)": {"target": "human CD33 H143A (human) (UniProt P20138)", "sequence (P20138 18-364 H143A limits assumed)": "as the sequence (P20138 18-364 L275A limits assumed) above, with H126A, A258L counted along it", "test": "alanine scan, flow cytometry, HEK293-T"}, "human CD33 L93A (human)": {"target": "human CD33 L93A (human) (UniProt P20138)", "test": "alanine scan, flow cytometry, HEK293-T"}, "human CD33 G64A (human)": {"target": "human CD33 G64A (human) (UniProt P20138)", "test": "alanine scan, flow cytometry, HEK293-T"}, "human CD33 P155A (human)": {"target": "human CD33 P155A (human) (UniProt P20138)", "sequence (P20138 18-364 P155A limits assumed)": "as the sequence (P20138 18-364 L275A limits assumed) above, with P138A, A258L counted along it", "test": "alanine scan, flow cytometry, HEK293-T"}}, "data": [{"substance": "Refmab #7 (WM53) (antibody)", "values": [{"measurement": "Mean % WT Binding", "setting": "human CD33 E337A (human)", "value": 102, "unit": "% WT binding"}, {"measurement": "Mean % WT Binding", "setting": "human CD33 L275A (human)", "value": 106, "unit": "% WT binding"}, {"measurement": "Mean % WT Binding", "setting": "human CD33 R286A (human)", "value": 134, "unit": "% WT binding"}, {"measurement": "Mean % WT Binding", "setting": "human CD33 Q311A (human)", "value": 93.6, "unit": "% WT binding"}, {"measurement": "Mean % WT Binding", "setting": "human CD33 F345A (human)", "value": 140, "unit": "% WT binding"}, {"measurement": "Mean % WT Binding", "setting": "human CD33 E333A (human)", "value": 91, "unit": "% WT binding"}, {"measurement": "Mean % WT Binding", "setting": "human CD33 T320A (human)", "value": 117, "unit": "% WT binding"}, {"measurement": "Mean % WT Binding", "setting": "human CD33 N297A (human)", "value": 81.2, "unit": "% WT binding"}, {"measurement": "Mean % WT Binding", "setting": "human CD33 S314A (human)", "value": 107, "unit": "% WT binding"}, {"measurement": "Mean % WT Binding", "setting": "human CD33 R296A (human)", "value": 93.6, "unit": "% WT binding"}, {"measurement": "Mean % WT Binding", "setting": "human CD33 T331A (human)", "value": 108, "unit": "% WT binding"}, {"measurement": "Mean % WT Binding", "setting": "human CD33 A289S (human)", "value": 107, "unit": "% WT binding"}, {"measurement": "Mean % WT Binding", "setting": "human CD33 P301A (human)", "value": 99.8, "unit": "% WT binding"}, {"measurement": "Mean % WT Binding", "setting": "human CD33 D335A (human)", "value": 106, "unit": "% WT binding"}, {"measurement": "Mean % WT Binding", "setting": "human CD33 N344A (human)", "value": 108, "unit": "% WT binding"}, {"measurement": "Mean % WT Binding", "setting": "human CD33 P308A (human)", "value": 111, "unit": "% WT binding"}, {"measurement": "Mean % WT Binding", "setting": "human CD33 G327A (human)", "value": 110, "unit": "% WT binding"}, {"measurement": "Mean % WT Binding", "setting": "human CD33 S323A (human)", "value": 109, "unit": "% WT binding"}, {"measurement": "Mean % WT Binding", "setting": "human CD33 C325A (human)", "value": 101, "unit": "% WT binding"}, {"measurement": "Mean % WT Binding", "setting": "human CD33 V332A (human)", "value": 112, "unit": "% WT binding"}, {"measurement": "Mean % WT Binding", "setting": "human CD33 K313A (human)", "value": 108, "unit": "% WT binding"}, {"measurement": "Mean % WT Binding", "setting": "human CD33 T322A (human)", "value": 102, "unit": "% WT binding"}, {"measurement": "Mean % WT Binding", "setting": "human CD33 L271A (human)", "value": 113, "unit": "% WT binding"}, {"measurement": "Mean % WT Binding", "setting": "human CD33 D298A (human)", "value": 86.5, "unit": "% WT binding"}, {"measurement": "Mean % WT Binding", "setting": "human CD33 G304A (human)", "value": 103, "unit": "% WT binding"}, {"measurement": "Mean % WT Binding", "setting": "human CD33 G318A (human)", "value": 128, "unit": "% WT binding"}, {"measurement": "Mean % WT Binding", "setting": "human CD33 L273A (human)", "value": 92.5, "unit": "% WT binding"}, {"measurement": "Mean % WT Binding", "setting": "human CD33 Y340A (human)", "value": 112, "unit": "% WT binding"}, {"measurement": "Mean % WT Binding", "setting": "human CD33 D112A (human)", "value": 47.9, "unit": "% WT binding"}, {"measurement": "Mean % WT Binding", "setting": "human CD33 I176A (human)", "value": 103, "unit": "% WT binding"}, {"measurement": "Mean % WT Binding", "setting": "human CD33 V138A (human)", "value": 91, "unit": "% WT binding"}, {"measurement": "Mean % WT Binding", "setting": "human CD33 W167A (human)", "value": 127, "unit": "% WT binding"}, {"measurement": "Mean % WT Binding", "setting": "human CD33 T139A (human)", "value": 121, "unit": "% WT binding"}, {"measurement": "Mean % WT Binding", "setting": "human CD33 G58A (human)", "value": 97.2, "unit": "% WT binding"}, {"measurement": "Mean % WT Binding", "setting": "human CD33 P72A (human)", "value": 114, "unit": "% WT binding"}, {"measurement": "Mean % WT Binding", "setting": "human CD33 G188A (human)", "value": 127, "unit": "% WT binding"}, {"measurement": "Mean % WT Binding", "setting": "human CD33 L161A (human)", "value": 120, "unit": "% WT binding"}, {"measurement": "Mean % WT Binding", "setting": "human CD33 T152A (human)", "value": 102, "unit": "% WT binding"}, {"measurement": "Mean % WT Binding", "setting": "human CD33 G156A (human)", "value": 112, "unit": "% WT binding"}, {"measurement": "Mean % WT Binding", "setting": "human CD33 W179A (human)", "value": 111, "unit": "% WT binding"}, {"measurement": "Mean % WT Binding", "setting": "human CD33 D107A (human)", "value": 113, "unit": "% WT binding"}, {"measurement": "Mean % WT Binding", "setting": "human CD33 H143A (human)", "value": 112, "unit": "% WT binding"}, {"measurement": "Mean % WT Binding", "setting": "human CD33 L93A (human)", "value": 102, "unit": "% WT binding"}, {"measurement": "Mean % WT Binding", "setting": "human CD33 G64A (human)", "value": 119, "unit": "% WT binding"}, {"measurement": "Mean % WT Binding", "setting": "human CD33 P155A (human)", "value": 107, "unit": "% WT binding"}]}]}
